Experimental findings from PMC9065035, “Structural basis for the synthesis of the core 1 structure by C1GalT1” (Nature Communications, 2022) are described below.

The chains are these.
B1: P7 glycopeptide YADT*GPF (GalNAc on Thr) (peptide)
peptide: YADT(αGalNAc)GPF-NH2
notes: Asp at -1; Tied to the name P7 by the text (Asp at -1; ITC was done with P4 and P7 only besides APDT*RP); Made on Rink Amide MBHA resin, so probably a C-terminal amide (surmised); source: synthetic peptide (solid-phase synthesis, HPLC purified)
B2: P7 (YADT*GPF) glycopeptide (peptide)
peptide: YADT(αGalNAc)GPF-NH2
notes: designed acceptor glycopeptide; Made on Rink Amide resin, so a C-terminal amide is to be expected; source: synthetic peptide (solid-phase, Rink Amide MBHA resin, HPLC purified)
B3: DmC1GalT1^S73-Q388 (Drosophila melanogaster C1GalT1, residues S73-Q388) (enzyme)
chain: not shown
modifications: N-glycans trimmed with Endoglycosidase-H (expressed with kifunensine)
notes: C1GalT1 (core 1 synthase) of Drosophila melanogaster, residues S73-Q388; Expressed with the honey bee mellitin secretion signal in front (pFastBac1-mellitin-DmC1GalT1-6His); two molecules in the asymmetric unit arranged as a homodimer; also called truncated version of DmC1GalT1; mellitin-DmC1GalT1-6His; source: High Five insect cells (baculovirus), secreted, purified (His-Trap, Endo-H, MBP-Trap, …)
B4: DmC1GalT1^S73-Q388 (Drosophila melanogaster C1GalT1, residues S73-Q388) (enzyme)
chain: not shown
modifications: N-glycans trimmed with Endo-H
notes: C1GalT1 of Drosophila melanogaster, residues S73-Q388; Homodimer by SEC and in the crystal; also called truncated version of DmC1GalT1; DmC1GalT1-His
B5: APDT*RP glycopeptide (MUC1 tandem repeat epitope with alpha-GalNAc on Thr) (peptide)
peptide: APDT(αGalNAc)RP-NH2
modifications: N-terminus assumed
SMILES: CC(=O)N[C@H]1[C@@H](O[C@H](C)[C@H](NC(=O)[C@H](CC(=O)O)NC(=O)[C@@H]2CCCN2C(=O)[C@H](C)N)C(=O)N[C@@H](CCCNC(=N)N)C(=O)N2CCC[C@H]2C(N)=O)O[C@H](CO)[C@H](O)[C@@H]1O
notes: source: synthetic peptide (Fmoc solid phase, Rink Amide MBHA resin, HPLC)
B6: P4 (PAAT*GPY) glycopeptide (peptide)
peptide: PAAT(αGalNAc)GPY-NH2
notes: as for B2
B7: P4 glycopeptide PAAT*GPY (GalNAc on Thr) (peptide)
peptide: PAAT(αGalNAc)GPY-NH2
notes: Tied to the name P4 by the residues that the text names for P4 (Pro1, Ala2, Ala3, Thr4, Gly5, Tyr7); Made on Rink Amide MBHA resin, so probably a C-terminal amide (surmised); source: synthetic peptide (solid-phase synthesis, HPLC purified)

Data set [1] addresses T1, Drosophila melanogaster C1GalT1, residues T43-Q388 (DmC1GalT1^T43-Q388) (Drosophila melanogaster, UniProt Q7K237 43-388).
T1 construct: N-glycosylated when made in HEK293; also called core 1/T-synthase; source: HEK293, transfected (pHLSec), secreted, purified (His-Trap, Superdex 75)
Nature of the data set: ITC; 2 mM glycopeptide titrated into the enzyme (60 uM for APDT*RP, 50 uM for P4/P7); excess of UDP: 25 mM TRIS pH 7.5, 150 mM NaCl, 1 mM UDP, 1 mM MnCl2; 20 °C; one-site model; duplicate. The settings on record: both partners purified. For orientation: ITC needs no label: the signal is the heat of the interaction.

The target in data set [2] is T1, Drosophila melanogaster C1GalT1, …. The data set is described as follows: ITC; 2 mM glycopeptide titrated into 60 uM enzyme; no UDP: 25 mM TRIS pH 7.5, 150 mM NaCl, 1 mM MnCl2; 20 °C; one-site model; duplicate. The settings on record: both partners purified.
Data set [3] concerns the target T2, DmC1GalT1^T43-Q388 (Drosophila melanogaster C1GalT1, residues T43-Q388) (Drosophila melanogaster).
T2 construct: N-glycosylated (lower eukaryotes' C1GalT1 are N-glycosylated); The pHLSec vector (AgeI/KpnI) may leave a few vector residues at both ends (surmise); the SEC was done with the S73-Q388 construct; also called core 1/T-synthase; DmC1GalT1-His; source: HEK293, transfected (pHLSec), secreted, purified (His-Trap, Superdex 75)
Nature of the data set: ITC; under an excess of UDP: 2 mM (glyco)peptide titrated into DmC1GalT1^T43-Q388 (60 µM for APDT*RP and APDTRP, 50 µM for P4/P7); 20 °C; 25 mM TRIS pH 7.5, 150 mM NaCl, 1 mM UDP, 1 mM MnCl2; one-site model; duplicate. The settings on record: both partners purified.

In data set [4] the target is T2, DmC1GalT1^T43-Q388 (Drosophila …). Nature of the data set: ITC; in the absence of UDP: 2 mM glycopeptide titrated into 60 µM DmC1GalT1^T43-Q388; 20 °C; 25 mM TRIS pH 7.5, 150 mM NaCl, 1 mM MnCl2; one-site model; duplicate. The settings on record: both partners purified.
Data set [5] concerns the molecule itself. The data set is described as follows: crystal structure; 15 mg/mL DmC1GalT1^S73-Q388, 5 mM UDP, 2 mM MnCl2, 5 mM APDT*RP; space group P2_(1); 2.40 Å.
Data set [6] concerns the molecule itself. Nature of the data set: crystal structure; DmC1GalT1^S73-Q388 (15 mg/mL) with 5 mM UDP, 2 mM MnCl2 and 5 mM APDT*RP; space group P21; 2.40 Å.
Data set [7] deals with the molecule itself. The data set is described as follows: SEC; size exclusion chromatography of DmC1GalT1^S73-Q388 against protein markers of known molecular weight. (SEC sorts molecules by how far they enter the pores of the column.)
Another data set concerns the target DmC1GalT1^T43-Q388 Y213A (Drosophila melanogaster, UniProt Q7K237 43-388, Y213A). The data set is described as follows: cell-based or functional assay.
Another data set has as its target DmC1GalT1^T43-Q388 Y325A (Drosophila melanogaster, UniProt Q7K237 43-388, Y325A). The data set is described as follows: cell-based or functional assay.
The next data set addresses DmC1GalT1^T43-Q388 R152A (Drosophila melanogaster, UniProt Q7K237 43-388, R152A). The data set is described as follows: cell-based or functional assay.
For data set [8], the target named is B3. The data set is described as follows: crystal structure; 15 mg/mL DmC1GalT1^S73-Q388, 5 mM UDP, 2 mM MnCl2, 5 mM APDT*RP; space group P2_(1); 2.40 Å. Conditions: both partners purified.

Ends that are not written are not given here. * marks the point of attachment. αGalNAc = CC(=O)N[C@@H]1[C@@H](O)[C@@H](O)[C@@H](CO)O[C@@H]1*

Turning to B1, the Kd (commonly the concentration at which binding is half-saturated) in data set [1] is 60 µM; in data set [2] it was 37.1 µM.

For B2, in [3], the affinity, expressed as Kd, was 60 µM and the stoichiometry N (usually a count of units in the complex or per binding partner) came to 1.5. For the same molecule, in data set [4], binding was characterised by a dissociation constant (Kd) of 37.1 µM and the “stoichiometry N” value was 0.65.

Consider B3, for which the “stoichiometry N” value in data set [5] was determined as 2.

Regarding B4, the “stoichiometry N” value in [6] and in data set [7] was 2 in each case.

With B5, the figures for the “glycosyltransferase activity relative to WT (UDP-Glo, 500 nM mutant, 500 μM UDP-Gal, 500 μM APDT*RP)” value with DmC1GalT1^T43-Q388 Y213A, in the data set with DmC1GalT1^T43-Q388 Y325A and in the data set with DmC1GalT1^T43-Q388 R152A were 25 fold decrease, 25 fold decrease and 15 fold decrease, respectively. Moreover, in [8], the binding result is “binds”.

For B6, the dissociation constant (Kd) was 60.4 µM in [3] and 41 µM in data set [4]. The “stoichiometry N” value was 0.88 in [3] and 0.98 in data set [4].

With B7, the equilibrium dissociation constant (Kd) in data set [1] is 60.3 µM; in data set [2] it was 41 µM.
